Measured values reported in article PMC11357992, “Non-invasive mapping of systemic neutrophil dynamics upon cardiovascular injury” (Nature Cardiovascular Research, 2023).
“And” between values parts separate entries of the source, which are not always exact repeats. Identical values can stand only once. Where no end group is shown, it is not given here. Side-chain parts run from the residue outwards. rhodamine‑labelled PEGylated perfluoro‑15‑crown‑5 ether nanoemulsion = not defined here; carboxyfluorescein = N-terminal fluorescence label (CF)

Columns and labels:
[1] = Liver serum markers after PFC injection; type: in vivo, mouse; conditions: i.v. over 3 consecutive days, 24 h after last injection
Procedure: ^ConPFCs, ^mNPPFCs (each at 1 mM per kg BW) or saline were injected i.v. over 3 consecutive days. Twenty-four hours after the last injection, mice were killed, and blood samples were withdrawn to determine GLDH, AST, ALP, ALT and bilirubin levels by standard clinical procedures. Furthermore, the liver and spleen were dissected, fixed in formalin and snap frozen. Subsequently, 4-µm cryosections were cut and stained with hematoxylin and eosin as described previously.
Extended Data Fig. 3 Assessment of ^mNPPFC/^ConPFC biodistribution, liver serum markers and histology of liver and spleen. a, Biodistribution of intravenously injected ^mNPPFCs was determined via ^19F MRI measurements at distinct time points after injection (1, 3, 6 and 24 h after injection). Shown are quantification of fluorine signal intensities in the blood, liver and spleen indicating a fast wash-out from the blood accompanied by a strong influx into the liver while signal intensities in the spleen were constant over the entire observation period; a.u. = arbitrary units. b, Serum levels of GLDH (glutamate dehydrogenase), AST (aspartate aminotransferase), ALP (alkaline phosphatase), ALT (alanine aminotransferase) and bilirubin after intravenous application of NaCl as control, ^ConPFCs or ^mNPPFCs. c + d, 4 µm sections of liver (C) and spleen (D) stained with hematoxylin and eosin. Organs were excised and processed for histology 24 h post injection of NaCl (upper row), ^ConPFCs (middle), ^mNPPFCs (lower). Representative liver/spleen images of organs from three different animals are shown. Scale bars indicate 100 µm. Data are mean values ± SD of n = 6 (a), n = 4-6 (b) and n = 6 (c + d) independent experiments. Source data

[2] = 19F content of PFCs by 19F MRI; type: physicochemical; conditions: panel B raw data, single replicates #1-#3
Procedure: Extended Data Fig. 8 Physicochemical properties and cellular uptake of ^hNPPFCs. a, Cellular uptake of ^hNPPFCs by human monocyte subsets and neutrophils: Human immune cells isolated from the blood of healthy volunteers were incubated with ^hNPPFCs. Subsequently, cells were stained with CD11b, CD14 and CD16 to differentiate between neutrophils (red), classical monocytes (gray) and non-classical monocytes (blue) and the cells were analyzed by flow cytometry. The cellular uptake of ^hNPPFCs was determined under unstimulated conditions (top) and after treatment with 1 µg/ml LPS (bottom). b, Physicochemical properties of the generated nanotracers: Characterization of size, size distribution and ζ potential of ^MalPFCs and targeting PFCs (^hNPPFCs, ^ConPFCs) by dynamic light scattering (DLS). The rhodamine fluorescence signal of the PCS was determined by IVIS imaging and the ^19F content by ^19F MRI. c-e, Cryo transmission electron microscopy of the generated nanotracers: c, Cryo transmission electron microscopy (cryo-TEM) of ^hNPPFCs and ^ConPFCs. Graphs: The diameter of the PFCs was determined manually from three images categorized into 25 nm groups. […] The number of PFCs and liposomes was manually determined (n = 4/5 images). […]

[3] = system: CD177+ and CD177- neutrophils; assay: hNPPFC uptake by CD177+ and CD177- neutrophil subpopulations, flow cytometry; type: cell-based, human; conditions: latter = CD177+
Procedure: Fig. 5 Specific targeting of human neutrophils by ^hNPPFCs. a, Uptake of ^hNPPFCs (red) or ^ConPFCs (gray) by human lymphocytes, monocytes or neutrophils over time as determined by flow cytometry. **P < 0.01. b, For MRI analysis, human immune cells were incubated with ^hNPPFCs (top row) or ^ConPFCs (bottom row). After several washing steps, cells were purified by density gradient centrifugation and analyzed by MRI. First column, ^1H MR image of the centrifugation tube with the cell layer (arrow) on top of the dark Percoll layer; second column, ^19F MR image of the same area; third column, merge of both datasets. Quantification of the ^19F data is shown on the right. c, hNP was conjugated to the pH-sensitive dye pHrodo, incubated with neutrophils at 4 °C (blue) and 37 °C (red) and analyzed by flow cytometry. d, Confocal microscopy of neutrophils incubated with ^hNPPFCs (top) or ^ConPFCs (bottom). Fluorescence signals of PFCs (rhodamine; Rho) as well as ligands (carboxyfluorescein; CF) were recorded, and nuclei were counterstained with 4′,6-diamidino-2-phenylindole (DAPI) (blue). […] At distinct time points, uptake of ^hNPPFCs was determined by flow cytometry. f, Human blood immune cells were incubated with ^hNPPFCs followed by staining for CD177 and flow cytometry. […]

Substance	adverse side effects (liver serum markers, histology of liver and spleen) [1]	19F amount [2]	labeling of CD177− versus CD177+ neutrophils [3]
mNPPFCs: PEGylated rhodamine-labeled perfluoro-15-crown-5 ether nanoemulsion (maleimide PFCs) coupled with murine neutrophil-specific peptide mNP (carboxyfluorescein-DFYKPMPNLRITGGGC([maleimide‑PEG2000‑DSPE-rhodamine‑labelled PEGylated perfluoro‑15‑crown‑5 ether nanoemulsion]); reading uncertain; also: printed as DFYKPMPNLRIT-GGG-C)	neither analysis of liver serum markers (GLDH, AST, ALP, ALT, bilirubin) nor histological examination of the liver and spleen revealed any evidence for adverse side effects		
hNPPFCs: PEGylated rhodamine-labeled perfluorocarbon nanoemulsion coupled with human neutrophil-specific peptide hNP (carboxyfluorescein-DLVTSKLQVGGGC; also: C-terminal Cys coupled via maleimide-PEG2000-DSPE to rhodamine-labelled perfluorocarbon nanoemulsion)		6.421 and 6.014 and 6.958	only the latter population could be labeled
